Reference: patent publication US20190083615A1

Biological target: cynomolgous monkey LAG3 expressed on cells (cynomolgous monkey)
Experiment: cell based KinExA, BaF/3 cells transfected with cynomolgus LAG3 (n=2)

cynomolgous monkey LAG3 expressed on cells (cynomolgous monkey), sequence (P18627 other isoform, or with tags, fused parts or gaps limits assumed): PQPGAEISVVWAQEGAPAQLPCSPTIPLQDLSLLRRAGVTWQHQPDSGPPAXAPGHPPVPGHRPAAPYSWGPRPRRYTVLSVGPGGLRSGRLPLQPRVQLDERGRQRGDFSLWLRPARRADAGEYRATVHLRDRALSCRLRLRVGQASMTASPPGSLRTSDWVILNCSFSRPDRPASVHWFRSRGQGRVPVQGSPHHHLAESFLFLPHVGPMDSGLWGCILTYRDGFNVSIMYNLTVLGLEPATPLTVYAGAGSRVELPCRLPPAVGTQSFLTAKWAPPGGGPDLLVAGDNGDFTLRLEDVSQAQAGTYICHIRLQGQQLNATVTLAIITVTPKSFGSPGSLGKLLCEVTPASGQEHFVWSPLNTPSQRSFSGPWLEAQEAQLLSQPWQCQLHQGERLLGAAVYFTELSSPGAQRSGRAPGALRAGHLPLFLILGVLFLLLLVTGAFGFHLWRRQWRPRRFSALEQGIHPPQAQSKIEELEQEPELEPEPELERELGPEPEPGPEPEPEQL

B1: 22D2 chimera: chimeric antibody [LAG3_H] mAb (LB145.22D2.E1.D1 (VH0/VL0) Geneart) IgG4 S228P/kappa (PX) (antibody, V domains shown)
VH: EVLLLQSGPELVKPGTSVKIPCKASGYTFTDYNVDWVKQRHGKGLEWIGDINPNNGGTIYSQKFKGKATLTVDKSSSTAFMELRSLTSEDTAVYFCARNYRWFGAMDHWGQGTSVTVSS
VL: DIVLTQSPASLAVSPGQRATISCKASQSLDYEGDSDMNWYQQKPGQPPRLLISGASNLESGIPARFSGSGSGTDFTVNIHPVEEEDAATYYCQQSTEDPRTFGGGTKLEIK
Kd: 0.011 nM
